Data from US20240415889A1 (UNIVERSITY OF PITTSBURGH OF THE COMMONWEALTH SYSTEM OF …, published 2024).

Assays:
[1] = molecular target: T1, single chain CD94/NKG2A-Fc (CD94/NKG2A-IgG1 fusion polypeptide) (human); assay: indirect ELISA, coated CD94/NKG2A-Fc
T1 construct: Biotinylated in the panning and BLItz experiments; also called CD94/NKG2A polypeptide; recombinant CD94/NKG2A polypeptide; not shown: human IgG1 Fc
Protocol: (§1) Binding and specificity of Fab or IgG to single chain CD94/NKG2A-Fc or single chain CD94/NKG2C-Fc were analyzed through indirect ELISA. Briefly, Fc-fused proteins were coated on a 96 well plate (Corning, 3690) at 200 ng/well (50 μL volume) in PBS for 2 hours at room temperature. Blocking was carried out with 3% BSA in PBS for overnight at 4° C. Next day, various concentration of Fab or IgG was applied to antigen coated plates and incubated for 1 hour at 25° C. After three times washing, anti-FLAG mouse antibody (M2 clone)-HRP conjugated (Sigma, A8592, 1:3000 dilution) or anti-human kappa goat antibody-HRP conjugated (Invitrogen, A18853, 1:3000 dilution) was applied to detect binding of either Fab or IgG. Same volume of TMB (Thermo, PI34028) was added as a substrate, and then enzymatic reactions were stopped by adding of 2N […].

[2] = molecular target: T2, single chain CD94/NKG2C-Fc (human); assay: indirect ELISA, coated CD94/NKG2C-Fc
T2 construct: also called CD94/NKG2C polypeptide; single chain CD94/NKG2C polypeptide; not shown: Fc
T2 sequence (chain, as listed by the source): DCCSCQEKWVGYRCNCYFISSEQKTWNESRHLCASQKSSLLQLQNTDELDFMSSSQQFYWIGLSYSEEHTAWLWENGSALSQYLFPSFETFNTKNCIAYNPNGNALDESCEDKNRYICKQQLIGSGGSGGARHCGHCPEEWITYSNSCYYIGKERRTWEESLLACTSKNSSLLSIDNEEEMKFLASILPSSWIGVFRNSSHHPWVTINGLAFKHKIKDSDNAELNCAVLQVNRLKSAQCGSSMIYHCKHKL
Protocol: as §1

[3] = molecular target: T1, single chain CD94/NKG2A-Fc …; assay: BLItz biolayer interferometry
[4] = molecular target: T3, CD94/NKG2A on the surface of primary human NK cells (human, UniProt Q13241 1-179; P26715 1-233); assay: flow cytometry on primary NK cells, 10 nM antibody
T3 construct: Endogenous receptor on primary NK cells enriched from normal human PBMCs; also called intact NKG2A receptor on the surface of NK cell; cell surface NKG2A
T3 sequence (Q13241 whole entry, chain 1 of 2): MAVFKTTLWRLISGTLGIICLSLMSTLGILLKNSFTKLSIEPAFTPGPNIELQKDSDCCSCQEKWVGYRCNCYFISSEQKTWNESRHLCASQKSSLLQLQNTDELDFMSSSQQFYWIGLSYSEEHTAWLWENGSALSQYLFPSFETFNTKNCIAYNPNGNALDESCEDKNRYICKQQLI
T3 sequence (P26715 whole entry, chain 2 of 2): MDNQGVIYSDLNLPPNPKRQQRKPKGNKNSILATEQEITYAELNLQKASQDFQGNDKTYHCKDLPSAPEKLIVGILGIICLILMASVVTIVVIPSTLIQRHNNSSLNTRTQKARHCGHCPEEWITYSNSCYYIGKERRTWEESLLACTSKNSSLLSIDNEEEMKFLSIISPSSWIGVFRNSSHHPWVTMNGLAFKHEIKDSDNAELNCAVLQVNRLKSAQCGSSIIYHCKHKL
Protocol: For investigation of NKG2A expression level of NK cells, enriched NK cells were activated with 50 IU/mL of hIL-2 and treated with the indicated antibodies (100 nM) for 24 hours at 37° C. After incubation with antibodies, cells were washed with cold PBS, and then the cell surface NKG2A was detected using a FITC- or PE-conjugated anti-human CD159a (NKG2A) antibody.

T1 sequence (chain, as listed by the source): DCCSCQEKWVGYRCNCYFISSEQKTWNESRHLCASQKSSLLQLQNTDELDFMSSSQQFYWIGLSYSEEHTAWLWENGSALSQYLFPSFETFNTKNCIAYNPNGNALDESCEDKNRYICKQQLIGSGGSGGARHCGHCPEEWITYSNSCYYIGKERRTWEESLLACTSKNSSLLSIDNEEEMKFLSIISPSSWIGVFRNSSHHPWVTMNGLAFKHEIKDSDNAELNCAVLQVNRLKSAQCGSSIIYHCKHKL

B1: Fab Clone #1 (1B2) (Fab, V domains shown)
VH: QVQLVESGGGLVKPGGSLRLSCAASGFTFSDYYMSWIRQAPGKGLEWVSYISSSGSTIYYADSVKGRFTISRDNAKNSLYLQMNSLRAEDTAVYYCARGFYMDAWGKGTTVTVSS
VL: DIQMTQSPSSLSASVGDRVTITCRASQSISSYLNWYQQKPGKAPKLLIYAASSLQSGVPSRFSGSGSGTDFTLTISSLQPEDFGVYYCQYYGISPPFTFGPGTKVDIKR
notes: Fab from a phage library, expressed in E. coli and purified on Ni-NTA; detected in ELISA with an anti-FLAG antibody
EC50 [1]: 2.7 nM | binding result [2]: no binding

B2: IgG Clone #1 (1B2, IgG1-LALA-PG) (antibody, V domains shown)
VH: QVQLVESGGGLVKPGGSLRLSCAASGFTFSDYYMSWIRQAPGKGLEWVSYISSSGSTIYYADSVKGRFTISRDNAKNSLYLQMNSLRAEDTAVYYCARGFYMDAWGKGTTVTVSS
VL: DIQMTQSPSSLSASVGDRVTITCRASQSISSYLNWYQQKPGKAPKLLIYAASSLQSGVPSRFSGSGSGTDFTLTISSLQPEDFGVYYCQYYGISPPFTFGPGTKVDIKR
notes: Human IgG1 format with L234A, L235A and P329G (LALA-PG / AAG) in the Fc; Light chain detected with an anti-human kappa antibody; also called Clone #1 IgG; 1B2 (IgG Clone #1)
Kd [3]: 1.1 nM | binding result [4]: binds

B3: IgG Clone #2 (1B2-6, IgG1-LALA-PG) (antibody, V domains shown)
VH: EVQLVESGGGLVKPGGSLRLSCAASGFTFSGYYMSWIRQAPGKGLEWLAYISNSGRTIYYADSVKGRFTISRDNSNSSLYLQMNSLRAEDTAVYYCARGFYMDAWGKGTTVTVSS
VL: DIQMTQSPSSLSASVGDRVTITCRASQSISSYLNWYQQKPGKAPKLLIYAASSLQSGVPSRFSGSGSGTDFTLTISSLQPEDFGVYYCQYYGISPPFTFGPGTKVDIKR
notes: Human IgG1 format with L234A, L235A and P329G; also called Clone #2 IgG (anti-NKG2A)
EC50 [1]: 0.6 nM | binding result [2]: no binding
